Measured values reported in article PMC2676423 (Molecular immunology, 2009).
Where “and” joins values, the source holds several entries; their conditions need not be identical. Equal entries are not always repeated.

B1: Fc-TNC-hCD134L (Fc fusion, chicken | human)
chain: RSPQPQPKPQPKPEPEGSLHACGCAAAPDIKDLLSRLEELEGLVSSLREQGTGGGSGGRGLQVSHRYPRIQSIKVQFTEYKKEKGFILTSQKEDEIMKVQNNSVIINCDGFYLISLKGYFSQEVNISLHYQKDEEPLFQLKKVRSVNSLMVASLTYKDKVYLNVTTDNTSLDDFHVNGGELILIHQNPGEFCVL
B2: Fc-TNC-mCD134L (Fc fusion, chicken | mouse)
chain: RSPQPQPKPQPKPEPEGSLHACGCAAAPDIKDLLSRLEELEGLVSSLREQGTGGGSGGRGLQSSSPAKDPPIQRLRGAVTRCEDGQLFISSYKNEYQTMEVQNNSVVIKCDGLYIIYLKGSFFQEVKIDLHFREDHNPISIPMLNDGRRIVFTVVASLAFKDKVYLTVNAPDTLCEHLQINDGELIVVQLTPGYCAPEGSYHSTVNQVPL

Assays:
[1] = molecular target: feline CD134 (OX40) expressed on MCC cells (feline); test: flow cytometry on cells
[2] = molecular target: native, endogenously expressed feline CD134 on MYA-1 T cells (feline (endogenous in MYA-1)); test: flow cytometry on cells
[3] = molecular target: human CD134 (OX40) expressed on MCC cells (human) (UniProt P43489); test: flow cytometry on cells
[4] = molecular target: Fc-TNC-fCD134L (chicken | feline) (UniProt P10039); test: non-reducing SDS-PAGE with immunoblot
[5] = molecular target: the molecule itself; test: non-reducing SDS-PAGE with immunoblot

human CD134 (OX40) expressed on MCC cells (human), sequence (P43489 29-277): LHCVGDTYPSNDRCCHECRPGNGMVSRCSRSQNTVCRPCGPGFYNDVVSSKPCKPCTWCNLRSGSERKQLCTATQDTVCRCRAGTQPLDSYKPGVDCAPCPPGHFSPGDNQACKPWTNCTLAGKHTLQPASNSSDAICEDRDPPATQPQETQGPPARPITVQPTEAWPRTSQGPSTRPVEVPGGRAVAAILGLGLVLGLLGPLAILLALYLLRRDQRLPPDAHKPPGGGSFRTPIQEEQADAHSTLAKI

Molecule	mean fluorescence intensity (MFI) [1]	percent of cells positive [1] [%]	mean fluorescence intensity (MFI) [2]	percent of cells positive [2] [%]	mean fluorescence intensity (MFI) [3]	percent of cells positive [3] [%]	stoichiometry N [4]	stoichiometry N [5]
FLAG-TNC-fCD134L (from UniProt P10039 110-139) (ligand)	5	66.2	3	44.9				
FLAG-mCD134L (FLAG-tagged murine CD134L) (from UniProt P43488 51-198) (ligand)	309	99.7	12	86.5				
Fc-TNC-fCD134L (from UniProt P10039 110-139) (Fc fusion)	221	99.8	14	82.4	9.9	45.5	6	
Fc-TNC-mCD134L (from UniProt P10039 110-139; P43488 51-198) (Fc fusion)	300	99.8	7	78.2				
B1								2 and 6
B2								6
